Test results from US20180305421A1 (SHIRE HUMAN GENETIC THERAPIES, published 2018).

T1: BMP-9 (UniProt Q9UK05 320-429)
T1 sequence (looked up): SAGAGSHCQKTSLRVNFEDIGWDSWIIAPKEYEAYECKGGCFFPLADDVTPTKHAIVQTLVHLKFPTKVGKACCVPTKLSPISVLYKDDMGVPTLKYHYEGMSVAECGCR

T2: BMP-6 (UniProt P22004 382-513, limits assumed)
T2 sequence (looked up): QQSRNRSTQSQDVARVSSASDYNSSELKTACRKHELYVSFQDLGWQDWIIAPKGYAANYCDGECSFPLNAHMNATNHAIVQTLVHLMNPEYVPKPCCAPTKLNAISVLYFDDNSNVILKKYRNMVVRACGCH

T3: BMP-4 (UniProt P12644 293-408)
T3 sequence (looked up): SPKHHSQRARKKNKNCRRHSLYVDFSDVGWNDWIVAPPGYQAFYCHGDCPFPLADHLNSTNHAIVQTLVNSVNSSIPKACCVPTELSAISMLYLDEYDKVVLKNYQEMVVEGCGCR

T4: BMP-7 (UniProt P18075 293-431)
T4 sequence (looked up): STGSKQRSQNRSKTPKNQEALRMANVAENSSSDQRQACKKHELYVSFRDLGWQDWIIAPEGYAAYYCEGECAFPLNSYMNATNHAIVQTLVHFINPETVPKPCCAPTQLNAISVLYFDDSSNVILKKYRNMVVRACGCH

T5: myostatin (UniProt O14793 267-375)
T5 sequence (looked up): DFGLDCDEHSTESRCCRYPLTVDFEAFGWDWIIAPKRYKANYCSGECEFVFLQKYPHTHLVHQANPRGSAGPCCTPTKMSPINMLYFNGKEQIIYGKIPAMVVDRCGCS

T6: GDF-11 (UniProt O95390 299-407)
T6 sequence (looked up): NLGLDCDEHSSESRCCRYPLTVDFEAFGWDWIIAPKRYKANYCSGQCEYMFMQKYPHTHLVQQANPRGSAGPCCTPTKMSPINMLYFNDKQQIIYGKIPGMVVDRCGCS

T7: BMP-10 (UniProt O95393 317-424)
T7 sequence (looked up): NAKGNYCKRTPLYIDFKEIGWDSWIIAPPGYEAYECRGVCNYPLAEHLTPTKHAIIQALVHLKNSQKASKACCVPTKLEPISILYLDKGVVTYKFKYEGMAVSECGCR

B1: activin (ligand, UniProt P08476 311-426, looked up)
chain: GLECDGKVNICCKKQFFVSFKDIGWNDWIIAPSGYHANYCEGECPSHIAGTSGSSLSFHSTVINHYRMRGHSPFANLKSCCVPTKLRPMSMLYYDDGQNIIKKDIQNMIVEECGCS
notes: also called activin A
B2: sActRIIB-hFc (Fc fusion, UniProt Q13705 25-134, looked up)
chain: ETRECIYYNANWELERTNQSGLERCEGEQDKRLHCYASWRNSSGTIELVKKGCWLDDFNCYDRQECVATEENPQVYFCCCEGNFCNERFTHLPEAGGPEVTYEPPPTAPT
notes: Control protein in the Biacore assay; also called sActRTIB-hFc; sActRIIB-Fc; not shown: human Fc
B3: FS315-GAG3-mFc (Fc fusion)
chain: GNCWLRQAKNGRCQVLYKTELSKEECCSTGRLSTSWTEEDVNDNTLFKWMIFNGGAPNCIPCKETCENVDCGPGKKCRMNKKNKPRCVCAPDCSNITWKGPVCGLDGKTYRNECALLKARCKEQPELEVQYQGRCKKTCRDVFCPGSSTCVVDQTNNAYCVTCNRICPEPASSEQYLCGNDGVTYSSACHLRKATCLLGRSIGLAYEGKCIKAKSCEDIQCTGGKKCLWDFKVGRGRCSLCDELCPDSKSDEPVCASDNATYASECAMKEAACSSGVLLEVKHSGSCNSISEDTEEEEEDEDQDYSFPISSILEWGAPGGGGGAAAAAGGGGGGAPGGGGGAAAAAGGGGGGAPGGGGGAAAAAGGGGGGAPGCKPCICTVPEVSSVFIFPPKPKDVLTITLTPKVTCVVVDISKDDPEVQFSWFVDDVEVHTAQTQPREEQFNSTFRSVSELPIMHQDWLNGKEFKCRVNSAAFPAPIEKTISKTKGRPKAPQVYTIPPPKEQMAKDKVSLTCMITDFFPEDITVEWQWNGQPAENYKNTQPIMDTDGSYFVYSKLNVQKSNWEAGNTFTCSVLHEGLHNHHTEKSLSHSPGK
notes: also called FS315-mFc; FS315-Fc

Columns and labels:
[1] = molecular target: T8, follistatin-Fc human chimera FS315-hFc (Sino Biological Inc. Catalog Number 10685-H02H) (human, UniProt P19883 30-344); test: Biacore SPR, 25 C; Fc fusion captured with human antibody capture kit, ligand as soluble analyte
T8 construct: Bought fusion protein; also called Sino Biological FS315-hFc; not shown: human Fc of the bought product
T8 sequence (P19883 other isoform, or with tags, fused parts or gaps H02H H02H): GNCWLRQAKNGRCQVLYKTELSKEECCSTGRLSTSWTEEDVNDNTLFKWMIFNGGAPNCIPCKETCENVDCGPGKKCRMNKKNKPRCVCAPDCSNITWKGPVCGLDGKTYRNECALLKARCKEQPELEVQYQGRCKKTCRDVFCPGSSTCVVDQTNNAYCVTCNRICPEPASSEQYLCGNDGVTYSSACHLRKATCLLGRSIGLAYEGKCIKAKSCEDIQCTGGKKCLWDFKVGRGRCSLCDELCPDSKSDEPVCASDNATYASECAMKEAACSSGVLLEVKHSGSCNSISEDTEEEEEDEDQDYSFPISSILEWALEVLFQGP
Description: (§1) Specifically, commercially available follistatins (FS315, manufactured by R&D Systems and follistatin-Fc human chimera FS315-hFc, manufactured by Sino Biological), and FS315-GAG3-mFc fusion proteins were used to assess binding affinity and kinetics to activin, myostatin, and BMPs using Biacore assays. Briefly, FS315 was immobilized onto a CM5 chip, and follistatin-Fc fusion proteins were captured using human or mouse antibody capture kits (GE Healthcare). Post amine-coupling, a concentration series of activin, myostatin, or BMPs (e.g., BMP-2, -4, -6, -7, -9, -10, and GDF-1) was added as soluble analyte at 25° C. sActRTIB-hFc was used as a control. Binding affinities (Kd) and kinetics were determined using standard methods.

FS315 (R&D Systems) = molecular target: T9, FS315 (R&D Systems) (human, UniProt P19883 30-344); test: Biacore SPR, 25 C; FS315 immobilized on CM5 chip, ligand as soluble analyte; FS315 (R&D Systems, no Fc) amine-coupled to CM5 chip; activin as soluble analyte; 25 C
T9 construct: Bought protein (R&D Systems); also called native follistatin; native FS315
Description: as §1

BMP-9 [2] = molecular target: T1, BMP-9; test: cell-based or functional assay
BMP-6 = molecular target: T2, BMP-6; test: Biacore SPR, 25 C; Fc fusion captured with human antibody capture kit, ligand as soluble analyte
Description: as §1

activin [3] = molecular target: B1; test: as above
Description: as §1

BMP-9 [4] = molecular target: T1, BMP-9; test: as above
Description: as §1

BMP-4 [5] = molecular target: T3, BMP-4; test: as above
Description: as §1

BMP-7 = molecular target: T4, BMP-7; test: as above
Description: as §1

BMP-2 = BMP-2 (UniProt P12643 283-396); test: Biacore SPR, 25 C; Fc fusion captured with antibody capture kit, ligand as soluble analyte
Description: as §1

activin [6] = molecular target: B1; test: cell-based or functional assay
myostatin [7] = molecular target: T5, myostatin; test: cell-based or functional assay
GDF-11 = molecular target: T6, GDF-11; test: Biacore SPR, 25 C; Fc fusion captured with mouse antibody capture kit, ligand as soluble analyte
Description: as §1

activin [8] = molecular target: B1; test: as above
Description: as §1

myostatin [9] = molecular target: T5, myostatin; test: as above
Description: as §1

BMP-4 [10] = molecular target: T3, BMP-4; test: as above
Description: as §1

myostatin [11] = molecular target: T5, myostatin; test: Biacore SPR (Table 3)
Description: as §1

myostatin [12] = molecular target: T5, myostatin; test: cell-based or functional assay; remark: listed apart in the source
BMP-9 [13] = molecular target: T1, BMP-9; test: Biacore SPR, 25 C; Fc fusion captured with antibody capture kit, ligand as soluble analyte
Description: as §1

BMP-10 = molecular target: T7, BMP-10; test: as above
Description: as §1

| Kd [1] [pM] | Kd (FS315 (R&D Systems)) [pM] | IC50 (read off the curve); BRE-luciferase reporter in HEK293 cells, BMP-9-induced Smad1/5/8 signalling (BMP-9 [2]) [pM] | Kd (BMP-6) [pM] | Kd (activin [3]) [pM] | Kd (BMP-9 [4]) [pM] | Kd (BMP-4 [5]) [pM] | Kd (BMP-7) [pM] | binding result (BMP-2) | IC50, CAGA-luciferase reporter assay for Smad2/3 signaling (1.2 nM activin) (activin [6]) [pM] | IC50, CAGA-luciferase reporter assay for Smad2/3 signaling (1.2 nM myostatin) (myostatin [7]) [pM] | Kd (GDF-11) [pM] | Kd (activin [8]) [pM] | Kd (myostatin [9]) [pM] | Kd (BMP-4 [10]) [pM] | fold increase of binding affinity against follistatin (FS315) (myostatin [11]) [fold] | IC50 (read off the curve); CAGA-luciferase reporter in HEK293 cells, myostatin (1.2 nM)-induced Smad2/3 signalling (myostatin [12]) [pM] | binding result (BMP-9 [13]) | binding result (BMP-10) | Binder |
| --- | --- | --- | --- | --- | --- | --- | --- | --- | --- | --- | --- | --- | --- | --- | --- | --- | --- | --- | --- |
| 190 | 730 | – | – | – | – | – | – | – | – | – | – | – | – | – | – | – | – | – | B1 |
| – | – | ~20000 | 57 | 70 | 54 | 130000 | 1100 | no binding | – | – | – | – | – | – | – | – | – | – | B2 |
| – | – | – | – | – | – | – | – | no binding | 360 | 460 | 0.018 | 0.038 | 0.073 | 81000 | ≥ 10 | ~300 | no binding | no binding | B3 |
